# Measured values taken from paper PMC12207370, “Macrocyclic Peptide Probes for Immunomodulatory Protein CD59: Potent Modulators of Bacterial Toxin Activity and Antibody‐Dependent Cytotoxicity” (Angewandte Chemie (International Ed. in English), 2025).
# Molecular target: T1, biotinylated CD59 (Homo sapiens, UniProt P13987)
# T1 construct: Recombinant soluble human CD59 with an additional C-terminal cysteine residue
# T1 sequence (P13987 26-102 limits assumed): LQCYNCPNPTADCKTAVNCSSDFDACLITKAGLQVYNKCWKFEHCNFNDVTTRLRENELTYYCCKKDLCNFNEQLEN
# Assay: mRNA-display cyclic peptide screen against CD59-biotin, NGS abundance after 6th selection round
# Details: for Counts (raw counts for peptide sequence), Seq I: NGS sample Seq I; for Counts (raw counts for peptide sequence), Seq I / Counts (raw counts for peptide sequence), Seq II / Counts Seq I / Counts Seq II: sheet R6 (6th selection round); for Counts (raw counts for peptide sequence), Seq II: NGS sample Seq II; for Percentage of the pool, averaged across the two sequencing samples: average of Seq I and Seq II; for Percentage of the pool, averaged across the two sequencing samples / Percentage of the pool, Seq I / Percentage of the pool, Seq II / Percentage Seq I / Percentage Seq II / Percentage Average: sheet R6; for Percentage of the pool, Seq I: counts normalised by total counts of NGS sample Seq I; for Percentage of the pool, Seq II: counts normalised by total counts of NGS sample Seq II; for Percentage Seq I: counts normalised by total counts of sample Seq I; for Percentage Seq I / Percentage Seq II: percentage of the pool; for Percentage Seq II: counts normalised by total counts of sample Seq II; for Percentage Average: percentage of the pool averaged across the two sequencing samples; for Counts Seq I / Counts Seq II: raw NGS counts of peptide sequence; for Counts Seq I: sequencing sample Seq I; for Counts Seq II: sequencing sample Seq II
# Source text: To discover novel non‐protein CD59 ligands, we screened a library of 10^12 cyclic peptides against CD59 using mRNA‐display (Figure 2a).^[ [23], [24], [25], [26], [27], [28], [29] ^] Briefly, an mRNA library was designed in which the start codon was reprogrammed from Met to N‐chloroacetyl‐D‐Tyr (ClAc‐D‐Tyr), followed by 10–12 randomly encoded natural amino acids, a Cys residue, a (GlySer)3 linker, and a stop codon. […] The total library diversity was 1.51 × 10^13 molecules, comprising 5.02 × 10^12 molecules of each macrocycle size, covering a subset of the maximum theoretical diversity of this library design. Following in vitro translation, ClAc‐D‐Tyr spontaneously reacts with either the C‐terminal Cys or a Cys in the random region, yielding macrocyclic thioether peptides. Hits from the library were identified through iterative enrichment and amplification against biotinylated CD59, then immobilized on streptavidin beads. Fifteen hit sequences (CP‐01 to CP‐15), enriched with abundance >1% relative to the total pool of recovered binders after the 6th round of selection, were synthesized by solid phase peptide synthesis (SPPS), without the (Gly‐Ser)3 linker.
# Figure 2 Discovery of macrocyclic peptide ligands with nanomolar CD59 affinity using mRNA display. a) The selection process. PCR = polymerase chain reaction, SPPS = solid phase peptide synthesis. b) Table showing details of the peptides with nanomolar affinity for CD59 as well as the binding affinity of the lead inhibitor of CD59, rILYd4. K D values are presented as the average of three technical replicates ± SEM. Structures of all peptides and SPR sensograms are presented in Figures S1 and S2. *indicates the presented sequences are the variable regions of these cyclic peptides; each is flanked by an N‐terminal Ac‐D‐Tyr cyclized to a C‐terminal Cys. R6 abundance (%) is defined as (the given number of NGS reads for a given sequence/the total number of reads of unique sequences observed in NGS)*100 following the 6th selection round. c) Representative sensogram of the interaction between CP‐06 with immobilized CD59 by SPR analysis. Inset showing the equilibrium binding curve of CP‐06 to CD‐59. Below in the box are the association and dissociation rate constants of CP‐06. Concentrations are plotted in descending order from 800‐3.1 nM in line with their position on the legend. […] (nM)'; the box with Kon/Koff has no label of its own / ILYd4: the label may be cut off at the left edge (possibly 'rILYd4') / CP-02, KD: 15.3 ± 0.2, small print, 3 or 8 uncertain / CP-03, KD: 23.4 ± 0.7, small print / CP-06, KD: 11.3 ± 0.0, small print, 3 or 8 uncertain / CP-13, KD: 10.8 ± 0.7, small print, 8 or 6 uncertain / ILYd4, KD: 48.3 ± 1.1, small print, 8 and 3 uncertain
# The mRNA-display cyclic peptide screen was performed against CD59-biotin by T.E.M: DNA templates for transcription were generated by PCR in a similar manner to that previously described.^2 RNA oligonucleotides were transcribed from the DNA templates using T7 RNA polymerase and purified by phenol/chloroform extraction followed by ethanol precipitation. Oligonucleotide concentrations were determined spectroscopically by absorbance at 260 nm. In the first selection round a 1:1:1 molar ratio of NNK10/NNK11/NNK12 was used. The procedure for selection rounds 2-6 is described below; round 1 was conducted at twice the scale.
# RNA encoding for the peptide library ligated to a puromycin-modified oligonucleotide was […] (final [RNA] = 2.5 µM) using a customised PURE express kit (lacking release factor 1 and methionine, supplemented with […] initiator tRNA acylated with N-chloroacetyl-d-tyrosine prepared as previously described)^3 in a final volume of 5.6 µL for 1 hour at 37 °C.
# This mixture was incubated at 42 °C for 1 hour before being diluted to 500 µL with PBS (10 mM Na-PO4 pH 7.4, 2.7 mM KCl, 137 mM NaCl) and 0.5 µL taken for subsequent use in qPCR. […]
sequence,measurement,value
CFVGRLTLTST,"Counts (raw counts for peptide sequence), Seq I",65
same,"Counts (raw counts for peptide sequence), Seq II",3
same,"Percentage of the pool, averaged across the two sequencing samples",0.011%
same,"Percentage of the pool, Seq I",0.015%
same,"Percentage of the pool, Seq II",0.007%
CFVLRRNFEGT,"Counts (raw counts for peptide sequence), Seq I",53
same,"Counts (raw counts for peptide sequence), Seq II",5
same,"Percentage of the pool, averaged across the two sequencing samples",0.012%
same,"Percentage of the pool, Seq I",0.012%
same,"Percentage of the pool, Seq II",0.012%
CFVNRLGSAESR,"Counts (raw counts for peptide sequence), Seq I",63
same,"Counts (raw counts for peptide sequence), Seq II",9
same,"Percentage of the pool, averaged across the two sequencing samples",0.018%
same,"Percentage of the pool, Seq I",0.014%
same,"Percentage of the pool, Seq II",0.021%
CFVNRLRSAESR,Percentage Seq I,0.141%
same,Percentage Seq II,0.144%
same,Percentage Average,0.143%
same,Counts Seq I,618
same,Counts Seq II,62
CFVNRLSDSLSL,Percentage Seq I,0.048%
same,Percentage Seq II,0.070%
same,Percentage Average,0.059%
same,Counts Seq I,212
same,Counts Seq II,30
CFVRRLNDLTTT,Percentage Seq I,0.121%
same,Percentage Seq II,0.137%
same,Percentage Average,0.129%
same,Counts Seq I,528
same,Counts Seq II,59
CFVSRTQIGSV,"Counts (raw counts for peptide sequence), Seq I",85
same,"Counts (raw counts for peptide sequence), Seq II",2
same,"Percentage of the pool, averaged across the two sequencing samples",0.012%
same,"Percentage of the pool, Seq I",0.019%
same,"Percentage of the pool, Seq II",0.00464%
CFYQRTLGTTAS,Percentage Seq I,0.018%
same,Percentage Seq II,0.021%
same,Percentage Average,0.019%
same,Counts Seq I,79
same,Counts Seq II,9
CFYTRIDAFST,Percentage Seq I,0.081%
same,Percentage Seq II,0.079%
same,Percentage Average,0.080%
same,Counts Seq I,354
same,Counts Seq II,34
CHGGRTFIYAWS,Percentage Seq I,0.025%
same,Percentage Seq II,0.026%
same,Percentage Average,0.025%
same,Counts Seq I,108
same,Counts Seq II,11
CIDVYGRMWA,Percentage Seq I,0.086%
same,Percentage Seq II,0.091%
same,Percentage Average,0.088%
same,Counts Seq I,375
same,Counts Seq II,39
CIRGTPTTV,"Counts (raw counts for peptide sequence), Seq I",56
same,"Counts (raw counts for peptide sequence), Seq II",3
same,"Percentage of the pool, averaged across the two sequencing samples",0.010%
same,"Percentage of the pool, Seq I",0.013%
same,"Percentage of the pool, Seq II",0.007%
CIRGTPTTVWG,Percentage Seq I,0.387%
same,Percentage Seq II,0.362%
same,Percentage Average,0.374%
same,Counts Seq I,1692
same,Counts Seq II,156
CKIDVYGRTWS,"Counts (raw counts for peptide sequence), Seq I",81
same,"Counts (raw counts for peptide sequence), Seq II",5
same,"Percentage of the pool, averaged across the two sequencing samples",0.015%
same,"Percentage of the pool, Seq I",0.019%
same,"Percentage of the pool, Seq II",0.012%
CLDKWGRLWS,Percentage Seq I,0.911%
same,Percentage Seq II,0.754%
same,Percentage Average,0.833%
same,Counts Seq I,3987
same,Counts Seq II,325
CLDKWGRLWT,Percentage Seq I,0.042%
same,Percentage Seq II,0.042%
same,Percentage Average,0.042%
same,Counts Seq I,182
same,Counts Seq II,18
